For three molecules, mCherry expression from the cpcG2 promoter through PleC-CcaS and CcaR in E. coli, relative to the empty vector control, ADP production IC50 (coupled enzyme assay of PleC PAS AB-HK) relative to that of PodJ(1–635) and mCherry expression from the cpcG2 promoter through PleC-CcaS and CcaR in E. coli results are on record in PMC8980812.

The target in assay [1] is PleC-CcaS chimeric histidine kinase (chimera AB-1) (Caulobacter crescentus | not stated).
The target of assay [2] is T1, PleC PAS AB-HK (Caulobacter crescentus).
T1 sequence (P37894 whole entry, looked up): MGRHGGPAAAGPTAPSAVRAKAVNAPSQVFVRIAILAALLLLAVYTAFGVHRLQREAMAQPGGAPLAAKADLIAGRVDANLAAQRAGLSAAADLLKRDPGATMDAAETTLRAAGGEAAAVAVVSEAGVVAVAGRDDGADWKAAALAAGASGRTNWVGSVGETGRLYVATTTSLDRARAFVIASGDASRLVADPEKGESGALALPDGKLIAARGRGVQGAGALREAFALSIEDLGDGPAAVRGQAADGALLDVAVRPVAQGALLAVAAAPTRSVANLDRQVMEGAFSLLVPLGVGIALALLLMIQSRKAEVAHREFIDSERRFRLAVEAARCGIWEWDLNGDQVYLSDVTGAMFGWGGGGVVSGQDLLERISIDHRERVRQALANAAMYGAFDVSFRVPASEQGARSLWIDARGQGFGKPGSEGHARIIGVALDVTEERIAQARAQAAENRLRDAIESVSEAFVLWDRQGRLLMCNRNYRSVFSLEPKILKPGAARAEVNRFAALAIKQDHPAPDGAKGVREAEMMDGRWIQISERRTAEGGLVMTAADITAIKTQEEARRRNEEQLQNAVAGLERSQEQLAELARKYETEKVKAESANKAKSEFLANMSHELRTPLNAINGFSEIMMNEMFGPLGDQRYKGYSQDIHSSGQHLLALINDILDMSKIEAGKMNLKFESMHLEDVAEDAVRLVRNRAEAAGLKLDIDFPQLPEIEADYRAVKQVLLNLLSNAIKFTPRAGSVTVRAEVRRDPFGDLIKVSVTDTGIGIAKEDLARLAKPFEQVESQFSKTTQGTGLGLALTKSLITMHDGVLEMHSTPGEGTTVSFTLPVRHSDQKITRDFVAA

For assay [3], the target named is PleC-CcaS chimeric histidine kinase (chimera AB-1) (Caulobacter crescentus | not stated). This is another data set of the same source.

B1: YFP-PodJ (full-length PodJL) (natural protein)
chain: MTAASPWSVKGIDPKAREVAKDLARRSGMTLGEWLNRMIIEGDGQTADPRLAGDDVPNRAYLEIVKDDAPPRIEIAEHPADEVGRVALALDRLTQRIEAAEGRNAAAITGIDHSVRDALTRLGASEREQIAVAARFEGAVDELKTEQARATERLRRIESEAAGPRSAEALRALEGALGKVAGHLYEGEARTREAIATLEAKLNQQSSGDPSALVEAVVARLGERLEAAETRTSDALRELGASFQALDQRLGAVETANPATGVQEGLDSLAATLTQKMEAARLEMAAKLRESADGRFDRMERKLGEMAAHVQAAEQRSAQAIERMGREIVGVADAFNRRVHAAESRNASAIEQVGGEVARIAASVEHKLNRADSVQAQALEKLGGEIARITEKLAERIGSAERRNALAIDDVGEQVARVTERLNQRHERSSQELVDRIRQSEERTLRMLEEAREKIDSRLSEAQRKLEAAPPSPPPAQAPAPVATAQRPVPPAASPFEDNYFSQAASFSTSEDEADAFDAPPAPARSFEVAEFPAAEPEEPAFAHDDYAIADGFEPESPRYEVEPEVSDFAPAEPSRPMSTRDIIEQARAAARAAAASEGKGGKAKSAKKEKASKASGSLFSGFGGFSTKKSKARLGATVTTALVVFAAAGALGAGVGGLLLLNTDDGNNSPSRVAQAIAGRKADVEVNGPEADTTPGAPRAAVALTTGKVVPAEVEAPAAPPTNEAKALFEDAVRKIESGDRSGVELLKRAANGGYPAAQFYLSKMYEGGKNGVKVDMAEARRWSERAANGGDPRAMHNLALYYFKGEGGPRNSTTAASWFRKAADMGLVDSQFNLAQLYESGLGVSQNPAEAYKWYVIAGRAGDSTARGRATALRSQLTAEAQQTADRSALAFRPQTQVQTASLSSAAPAAANANLGVAQRVLSQLGYYQGPRDGVSSPALRMAIAAYQRDQGLPPTGSVDAETLNRLSVYAR
In assay [1], B1 gave a mCherry expression from the cpcG2 promoter through PleC-CcaS and CcaR in E. coli, relative to the empty vector control of 10 fold.

B2: PodJ(250–635) (domain or fragment)
chain: LGAVETANPATGVQEGLDSLAATLTQKMEAARLEMAAKLRESADGRFDRMERKLGEMAAHVQAAEQRSAQAIERMGREIVGVADAFNRRVHAAESRNASAIEQVGGEVARIAASVEHKLNRADSVQAQALEKLGGEIARITEKLAERIGSAERRNALAIDDVGEQVARVTERLNQRHERSSQELVDRIRQSEERTLRMLEEAREKIDSRLSEAQRKLEAAPPSPPPAQAPAPVATAQRPVPPAASPFEDNYFSQAASFSTSEDEADAFDAPPAPARSFEVAEFPAAEPEEPAFAHDDYAIADGFEPESPRYEVEPEVSDFAPAEPSRPMSTRDIIEQARAAARAAAASEGKGGKAKSAKKEKASKASGSLFSGFGGFSTKKSKARL
As to B2, in assay [2], the ADP production IC50 (coupled enzyme assay of PleC PAS AB-HK) relative to that of PodJ(1–635) was 2 fold.

B3: PodJ(250–635) expressed in E. coli (domain or fragment)
chain: B2 chain
B3: the mCherry expression from the cpcG2 promoter through PleC-CcaS and CcaR in E. coli in assay [3] came out at 3 fold.
